The target of one experiment is T1, TRAF2(NC)-CA21 (human).
T1 sequence: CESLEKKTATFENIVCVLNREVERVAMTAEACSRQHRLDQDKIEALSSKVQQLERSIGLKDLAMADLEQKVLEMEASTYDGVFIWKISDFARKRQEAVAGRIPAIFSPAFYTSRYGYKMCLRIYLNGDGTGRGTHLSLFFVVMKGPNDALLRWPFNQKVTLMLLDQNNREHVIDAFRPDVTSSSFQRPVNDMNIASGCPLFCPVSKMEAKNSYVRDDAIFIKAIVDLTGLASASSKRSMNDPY
The experiment in a line: flashplate competition assay, inhibition of TRAF2(NC)-CA21 binding to biotin-CD40c.

Another experiment has as its target T2, CD40c-TRAF2 interaction (Homo sapiens, UniProt Q12933).
T2 construct: 1 and 2, respectively; made in house; host or cells: TRAF2(NC)-CA21: Spodoptera frugiperda Sf21 cells (baculovirus); CD40c: Escherichia coli BL21 (DE3)
T2 sequence (Q12933 with tags, fused parts or gaps): T1 sequence
The experiment can be described thus: Flashplate assay of CD40c-TRAF2 interaction (biotin-CD40c, TRAF2(NC)-CA21, 125I-CA21 Fab). The experiment is classed as binding. The note with it: 0.44 μg/ml biotin-CD40c; for IC50: 5 μg/ml TRAF2(NC)-CA21, peptide preincubated with TRAF2(NC)-CA21, read-out: IC50 for inhibition of CD40c-TRAF2 interaction. The protocol: FIG. 2. Peptide antagonists of CD40c-TRAF2 interaction. Streptavidin flashplates were coated with 0.44 μg/ml biotin-CD40c. Stock solutions of peptides were prepared at 1 mg/ml in assay buffer and the pH verified. All peptides were assayed by preincubating with TRAF2(NC)-CA21 at a final peptide concentration of 0.5 mg/ml. Peptides were serially diluted 1.5-fold prior to addition of the TRAF2(NC)-CA21 (5 μg/ml final). Results are means of duplicate points except for the no inhibitor wells (none, closed circles) that are means i standard deviation of 11 replicates. A) Peptides AcPVQET-NH2 (closed squares), AcNTAAPVQET-NH2 (closed triangles), AcNTAAPVQETLH-NH2 (open triangles), CD30.B (AcDVMLSVEEEGKE-NH2, open circles); B) Peptides AcIQET-NH2 (closed squares), AcPIQET-NH2 (closed triangles), AcQEPQEINF-NH2 (open triangles), CD40c (open circles). The maximum signal in B) is less due to a difference in the decay of the ^125 I-Fab.
Significant signal was detectable as low as 0.054 μg/ml biotin-CD40c (FIG. 1). Standard conditions for the assay were selected to be 0.44 μg/ml CD40c and 5 μg/ml TRAF2(NC)-CA21. These conditions provided a signal/noise of eight to ten and a good dynamic range for the detection of inhibitors or enhancers. […] As noted by the manufacturer of the plates, low concentrations of detergents were strong inhibitors of the assay because they removed the streptavidin from the wells. […] The PVQET sequence in the CD40 cytoplasmic domain is essential for signaling through CD40 and is thought to be a core TRAF2 binding sequence. Devergne, O., et al (1996) Mol. Cell. Biol. 16, 7098-7108; Innui, W., et al (1990) Eur. J Immunol. 20, 1747-1753. Therefore several peptides around the PVQET sequence were tested for the ability to compete the CD40c-TRAF2 interaction (FIG. 2A). […] FIG. 2A.
Biotin-CD40c (0.5 μg/ml) was bound to streptavidin-coated 96-well scintillant-embedded plates (Flashplates, New England Nuclear, catalog #15112) overnight at 4° C. in D-PBS, 0.1 mM DTT, 0.01% BSA (100 μl/well). Plates were blocked for 2 hr at room temperature by the addition of Dulbecco's-PBS, 0.1 mM DTT, 1.0% BSA (100 μl/well). In a separate 96-well round bottom polypropylene plate peptide inhibitors were diluted in 40 mM HEPES, pH 7.5, 0.1 M NaCl, 1.0 mM MgCl2, 0.1 mM DTT, 0.01% BSA, and TRAF2(NC)-CA21 was added at a final concentration of 5 μg/ml. Plates were preincubated for 30 min at room temperature. After washing the biotin-CD40c-coated flashplate three times with D-PBS, 0.1 mM DTT, inhibitor-TRAF2(NC)-CA21 mixtures were transferred from the preincubation plate to the washed plate (100 μl/well). Alternatively, after washing the biotin-CD40c-coated flashplates, inhibitors were added directly without TRAF preincubation in a final volume of 50 μl 40 mM HEPES, pH 7.5, 0.1 M NaCl, 1.0 mM MgCl2, 0.1 mM DTT, 0.01% BSA, and 50 μl/well TRAF2(NC)-CA21 (10 μg/ml stock to make a final concentration of 5 μg/ml) was added. Flashplates were incubated for 1 hr at room temperature, washed three times with 40 MM HEPES, pH 7.5, 0.1 M NaCl, 1.0 mM MgCl2, 0.1 mM DTT, and 100 μl/well of [^125 I]CA21 Fab fragment at an adjusted specific activity of 0.08 μCi/well added in […] HEPES, pH […] 7.5, 0.1 M NaCl, 1.0 mM MgCl2, 0.1 mM DTT, 0.1% BSA. After a 1 hr incubation at room temperature plates were sealed and counted in a TopCount scintillation counter (Packard; one minute/well, 2 minute plate delay).

Experiment [1] deals with GST-CD40-TRAF interaction. The note with it: cited from earlier work.

Residues, ends and D or L forms follow the SMILES beside them.

One may read the IC50 as the midpoint of a concentration-inhibition curve.

Regarding “CD40c (nonbiotinylated CD40c polypeptide) (from UniProt P25942) (receptor)”, the IC50 with TRAF2(NC)-CA21 (human) was 50 µM. Consider `CC[C@H](C)[C@H](NC(C)=O)C(=O)N[C@@H](CCC(N)=O)C(=O)N[C@@H](CCC(=O)O)C(=O)N[C@H](C(N)=O)[C@@H](C)O` [IQET, AcIQET-NH2] (Ac-IQET-NH2), for which the IC50 at CD40c-TRAF2 interaction is about 140 µM. Ac-PVQET-NH2 [PVQET, AcPVQET-NH2]: the IC50 at CD40c-TRAF2 interaction is about 90 µM. Besides, the “ability to inhibit (compete) CD40c-TRAF2 interaction, in words” value at CD40c-TRAF2 interaction (5 μg/ml TRAF2(NC)-CA21, peptides up to 0.5 mg/ml) is on record as “most potent”. Regarding Ac-PIQET-NH2 [PIQET, AcPIQET-NH2], the IC50 at CD40c-TRAF2 interaction was about 70 µM. In the experiment with TRAF2(NC)-CA21 (human), Ac-IQET-NH2 [AcIQET-NH2] came in with an IC50 of 140 µM and a fold decrease of inhibitory activity against PIQET of 2 fold. With Ac-PVQET-NH2 [AcPVQET-NH2], the IC50 in the experiment with TRAF2(NC)-CA21 (human) was 90 µM.

Ac-PIQET-NH2 [AcPIQET-NH2]: in the experiment with TRAF2(NC)-CA21 (human), the IC50 came to 70 µM.

B1: CD40c: 62 amino acid human CD40 cytoplasmic domain (amino acids 216-277) expressed in E. coli (protein)
chain: KKVAKKPTNKAPHPKQEPQEINFPDDLPGSNTAAPVQETLHGCQPVTQEDGKESRISVQERQ
modifications: also: biotinylated via D-biotinoyl-aminocaproic acid NHS ester, one or two biotin per molecule, sites not given here
notes: 62 amino acid human CD40 cytoplasmic domain (amino acids 216-277) expressed in E. coli
On to B1, for which the concentration for half-maximal inhibition (IC50) in the experiment with CD40c-TRAF2 interaction is about 50 µM. In addition, the “ability to compete for GST-CD40-TRAF interaction” value in experiment [1] was “weak ability to compete”.

These data come from patent US6143507A, “High throughput compatible assay for receptor-TRAF interactions” (Boehringer Ingelheim Pharmaceuticals, Inc., priority 1998, dated 2000).
